# B1: Thioredoxin-like protein slr1139 (Synechocystis sp. (strain PCC 6803 / Kazusa)), P73263 (parent)
# chain: MSLLEITDAEFEQETQGQTKPVLVYFWASWCGPCRLMAPAIQAIAKDYGDKLKVLKLEVDPNPAAVAQCKVEGVPALRLFKNNELVMTHEGAIAKPKLLELLKEELDFI
# partner: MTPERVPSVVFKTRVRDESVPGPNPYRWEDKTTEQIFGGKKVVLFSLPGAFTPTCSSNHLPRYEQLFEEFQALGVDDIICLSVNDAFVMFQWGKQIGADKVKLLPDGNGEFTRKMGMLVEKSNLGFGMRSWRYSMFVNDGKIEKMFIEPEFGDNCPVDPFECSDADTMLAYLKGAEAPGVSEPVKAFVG
# B2: Thioredoxin-like protein slr1139 (Synechocystis sp. (strain PCC 6803 / Kazusa)), P73263 (parent)
# chain: B1 chain
# partner: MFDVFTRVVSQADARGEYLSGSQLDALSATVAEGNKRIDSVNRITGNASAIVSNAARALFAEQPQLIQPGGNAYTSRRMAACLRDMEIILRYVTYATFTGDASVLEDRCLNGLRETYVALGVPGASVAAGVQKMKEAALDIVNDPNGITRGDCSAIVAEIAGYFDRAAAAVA
# B3: Thioredoxin-like protein slr1139 (Synechocystis sp. (strain PCC 6803 / Kazusa)), P73263 (parent)
# chain: B1 chain
# partner: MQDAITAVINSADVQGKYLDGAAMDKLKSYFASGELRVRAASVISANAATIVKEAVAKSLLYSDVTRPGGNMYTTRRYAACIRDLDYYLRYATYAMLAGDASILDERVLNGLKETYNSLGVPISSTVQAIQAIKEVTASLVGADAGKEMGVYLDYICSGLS
# Variants of: B1
# Details: with prx5_syny3 prx5, P73728
row,effect of a mutation on the interaction,Variant
1,increasing interaction,MSLLEITDAEFEQETQGQTKPVLVYFWASWCGPSRLMAPAIQAIAKDYGDKLKVLKLEVDPNPAAVAQCKVEGVPALRLFKNNELVMTHEGAIAKPKLLELLKEELDFI [C34S]

# Variants of: B2
# Details: with phcb_syny3 cpcB
row,effect of a mutation on the interaction,Variant
1,increasing interaction,MSLLEITDAEFEQETQGQTKPVLVYFWASWCGPSRLMAPAIQAIAKDYGDKLKVLKLEVDPNPAAVAQCKVEGVPALRLFKNNELVMTHEGAIAKPKLLELLKEELDFI [C34S]

# Variants of: B3
# Details: with apcb_syny3 apcB
row,effect of a mutation on the interaction,Variant
1,increasing interaction,MSLLEITDAEFEQETQGQTKPVLVYFWASWCGPSRLMAPAIQAIAKDYGDKLKVLKLEVDPNPAAVAQCKVEGVPALRLFKNNELVMTHEGAIAKPKLLELLKEELDFI [C34S]
